Molecular target: recombinant human histone H3.1 (human, UniProt P68431 1-136)
Experiment: pull-down

binding result: binds
B1: RAGE^124-341-His-FLAG (extracellular region of RAGE lacking the V domain) (domain or fragment)
chain: PEIVDSASELTAGVPNKVGTCVSEGSYPAGTLSWHLDGKPLVPNEKGVSVKEQTRRHPETGLFTLQSELMVTPARGGDPRPTFSCSFSPGLPRHRALRTAPIQPRVWEPVPLEEVQLVVEPEGGAVAPGGTVTLTCEVPAQPSPQIHWMKDGVPLPLPPSPVLILPEIGPQDQGTYSCVATHSSHGPQESRAVSISIIEPGEEGPTAGSVGGSGLGTL
